{"source": "patent US20050048528A1", "about": "(WALTER AND ELIZA HALL INSTITUTE OF MEDICAL RESEARCH, published 2005)", "binders": {"B1": {"name": "Flag-tagged LMO4 (full-length) (other, UniProt P61968 1-165, looked up, not shown: small tags and cut ends)", "chain": "MVNPGSSSQPPPVTAGSLSWKRCAGCGGKIADRFLLYAMDSYWHSRCLKCSCCQAQLGDIGTSCYTKSGMILCRNDYIRLFGNSGACSACGQSIPASELVMRAQGNVYHLKCFTCSTCRNRLVPGDRFHYINGSLFCEHDRPTALINGHLNSLQSNPLLPDQKVC", "notes": "mature; also called Flag-LMO4; LM04"}, "B2": {"name": "endogenous LMO4 of human HBL100 breast epithelial cells (other, UniProt P61968 1-165, looked up)", "chain": "MVNPGSSSQPPPVTAGSLSWKRCAGCGGKIADRFLLYAMDSYWHSRCLKCSCCQAQLGDIGTSCYTKSGMILCRNDYIRLFGNSGACSACGQSIPASELVMRAQGNVYHLKCFTCSTCRNRLVPGDRFHYINGSLFCEHDRPTALINGHLNSLQSNPLLPDQKVC", "notes": "mature; also called native LMO4; 17 kD LMO4 protein"}, "B3": {"name": "GST-LMO4 fusion protein (full-length mouse LMO4 in pGEX-2T) (other, UniProt P61969 1-165, looked up)", "chain": "MVNPGSSSQPPPVTAGSLSWKRCAGCGGKIADRFLLYAMDSYWHSRCLKCSCCQAQLGDIGTSCYTKSGMILCRNDYIRLFGNSGACSACGQSIPASELVMRAQGNVYHLKCFTCSTCRNRLVPGDRFHYINGSLFCEHDRPTALINGHLNSLQSNPLLPDQKVC", "notes": "mature; Expressed in bacterial strain UT5600, immobilised on glutathione sepharose; not shown: glutathione-S-transferase as encoded by pGEX-2T; linker to LMO4 not described"}, "B4": {"name": "Flag-tagged second LIM domain of LMO4 (residues 79-165) (other, UniProt P61968 79-165, looked up, not shown: small tags and cut ends)", "chain": "RLFGNSGACSACGQSIPASELVMRAQGNVYHLKCFTCSTCRNRLVPGDRFHYINGSLFCEHDRPTALINGHLNSLQSNPLLPDQKVC", "notes": "also called LIM2"}}, "key": {"[1]": {"target": "BRCA1 activation domain (amino acids 1293-1863) fused to the Gal4 DNA-binding domain (human, UniProt P04386 1-147; P38398 1293-1863)", "assay": "cell-based or functional assay"}, "HA-CtIP (281-620)": {"target": "HA-CtIP (281-620) (human, UniProt Q99708 281-620)", "sequence (Q99708 281-620 limits assumed)": "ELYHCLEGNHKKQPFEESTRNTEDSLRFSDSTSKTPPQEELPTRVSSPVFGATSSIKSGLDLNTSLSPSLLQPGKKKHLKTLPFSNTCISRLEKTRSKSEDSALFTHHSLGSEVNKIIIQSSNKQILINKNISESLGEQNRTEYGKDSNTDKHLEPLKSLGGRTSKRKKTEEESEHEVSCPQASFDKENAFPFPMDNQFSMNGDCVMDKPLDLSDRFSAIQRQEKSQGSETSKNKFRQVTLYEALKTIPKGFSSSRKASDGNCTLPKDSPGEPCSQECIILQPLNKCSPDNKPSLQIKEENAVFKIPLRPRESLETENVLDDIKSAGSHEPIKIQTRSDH", "assay": "co-immunoprecipitation (anti-Flag) / anti-HA western blot, transfected 293T cells", "experimental": "(§1) FIG. 7: Two regions within CtIP specifically interact with LMO4. A, Schematic representation of wild-type CtIP and deletion mutant constructs that were tested for interaction with LMO4 in mammalian cells. The region that associates with BRCA1 and two putative leucine zipper (LZ) domains are indicated. A summary of each mutant's ability to interact with LMO4 is shown. […] Lysates were prepared and proteins immunoprecipitated using anti-Flag monoclonal antibody (F) or control isotype-matched (C) monoclonal antibody. After SDS-PAGE electrophoresis, western blotting was performed using α-HA antibody, specific for CtIP protein. Western blot analysis confirmed expression of Flag-LMO4 and CtIP mutant proteins (lower panels).\n(§2) Cell extracts (0.5 ml) were prepared in whole cell lysis buffer (150 mM NaCl, 5 mM EDTA, 50 mM Tris pH7.5, 1% Nonidet P-40, 1 mM DTT) containing protease inhibitors (1 mM phenylmethylsulfonyl fluoride, 1 μg/ml leupeptin, 1 μg/ml pepstatin, 1 μg/ml aprotinin) and normalised for protein concentration, as determined by Bradford analysis (BioRad). Proteins were immunoprecipitated with either anti-Flag M2 (Sigma) or anti-myc 9E10 and protein G sepharose (Amersham Pharmacia Biotech.), and separated by SDS-PAGE (Novex). […]"}, "HA-CtIP (59-320)": {"target": "T1, HA-CtIP (59-320) (human, UniProt Q99708 59-320)", "T1 construct": "range 59-320", "T1 sequence (Q99708 59-320 limits assumed)": "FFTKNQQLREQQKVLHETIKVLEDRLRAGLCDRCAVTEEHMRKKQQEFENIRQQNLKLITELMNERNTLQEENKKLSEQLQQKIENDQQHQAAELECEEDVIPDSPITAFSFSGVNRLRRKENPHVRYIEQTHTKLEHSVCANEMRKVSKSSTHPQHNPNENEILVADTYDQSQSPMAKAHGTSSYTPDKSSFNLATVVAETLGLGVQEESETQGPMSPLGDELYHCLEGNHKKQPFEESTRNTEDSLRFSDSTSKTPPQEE", "assay": "co-immunoprecipitation (anti-Flag) / anti-HA western blot, transfected 293T cells", "experimental": "as §1, §2"}, "[2]": {"target": "T2, endogenous BRCA1 of human HBL100 breast epithelial cells (human, UniProt P38398 1-1863)", "T2 construct": "mature; also called native BRCA1; BRCA1 (220 kD)", "T2 sequence (P38398 whole entry)": "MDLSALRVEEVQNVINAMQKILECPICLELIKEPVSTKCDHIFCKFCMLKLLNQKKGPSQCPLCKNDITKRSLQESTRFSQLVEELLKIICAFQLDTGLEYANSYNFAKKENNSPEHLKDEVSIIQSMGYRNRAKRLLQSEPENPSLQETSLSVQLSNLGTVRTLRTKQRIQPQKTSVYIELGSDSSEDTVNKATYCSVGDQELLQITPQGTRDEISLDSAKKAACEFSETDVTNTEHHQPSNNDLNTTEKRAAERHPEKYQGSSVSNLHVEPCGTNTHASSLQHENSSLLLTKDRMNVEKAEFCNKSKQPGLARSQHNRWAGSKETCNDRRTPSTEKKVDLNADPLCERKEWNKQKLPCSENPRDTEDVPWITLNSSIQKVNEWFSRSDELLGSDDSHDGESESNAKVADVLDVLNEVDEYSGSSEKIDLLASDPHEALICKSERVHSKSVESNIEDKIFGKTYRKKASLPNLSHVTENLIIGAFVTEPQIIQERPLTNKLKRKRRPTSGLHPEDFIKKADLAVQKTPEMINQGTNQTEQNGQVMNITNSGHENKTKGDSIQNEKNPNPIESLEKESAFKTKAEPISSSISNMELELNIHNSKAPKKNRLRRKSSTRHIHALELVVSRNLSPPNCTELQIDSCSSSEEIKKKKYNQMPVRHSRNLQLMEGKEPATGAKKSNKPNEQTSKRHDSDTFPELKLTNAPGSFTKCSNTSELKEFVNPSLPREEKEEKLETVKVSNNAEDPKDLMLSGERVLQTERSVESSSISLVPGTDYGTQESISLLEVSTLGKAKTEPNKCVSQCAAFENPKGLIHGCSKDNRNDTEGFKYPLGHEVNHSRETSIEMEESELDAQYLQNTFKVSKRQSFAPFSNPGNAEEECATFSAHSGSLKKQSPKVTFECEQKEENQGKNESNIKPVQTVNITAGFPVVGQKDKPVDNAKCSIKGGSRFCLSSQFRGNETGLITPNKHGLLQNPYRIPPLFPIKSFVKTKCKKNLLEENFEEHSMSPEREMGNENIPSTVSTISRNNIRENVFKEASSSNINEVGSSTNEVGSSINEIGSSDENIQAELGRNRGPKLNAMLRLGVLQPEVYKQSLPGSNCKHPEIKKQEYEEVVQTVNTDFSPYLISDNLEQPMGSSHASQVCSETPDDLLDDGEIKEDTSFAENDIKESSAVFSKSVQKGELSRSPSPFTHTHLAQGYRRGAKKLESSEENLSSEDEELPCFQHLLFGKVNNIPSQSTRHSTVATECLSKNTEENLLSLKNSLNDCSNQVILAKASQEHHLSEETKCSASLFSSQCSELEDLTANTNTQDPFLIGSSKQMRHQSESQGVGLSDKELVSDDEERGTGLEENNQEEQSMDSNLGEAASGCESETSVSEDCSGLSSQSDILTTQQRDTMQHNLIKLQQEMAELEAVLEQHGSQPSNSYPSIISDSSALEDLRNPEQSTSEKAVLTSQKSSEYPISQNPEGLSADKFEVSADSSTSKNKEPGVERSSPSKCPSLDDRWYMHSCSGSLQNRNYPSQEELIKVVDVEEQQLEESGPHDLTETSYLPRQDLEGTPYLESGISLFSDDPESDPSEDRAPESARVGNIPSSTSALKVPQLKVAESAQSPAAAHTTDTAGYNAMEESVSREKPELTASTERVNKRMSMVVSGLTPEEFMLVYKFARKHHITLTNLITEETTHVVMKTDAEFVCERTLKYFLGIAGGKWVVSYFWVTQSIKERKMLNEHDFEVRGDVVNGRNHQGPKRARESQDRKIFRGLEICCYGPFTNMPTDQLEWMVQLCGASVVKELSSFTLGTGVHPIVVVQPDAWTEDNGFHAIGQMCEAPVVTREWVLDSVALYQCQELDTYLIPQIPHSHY", "assay": "immunoprecipitation of HBL100 nuclear lysates with rat anti-LMO4 monoclonal / anti-BRCA1 western blot (FIG. 9B)", "description": "Nuclear lysates were immunoprecipitated with a rat anti-LMO4 monoclonal (lane 2) or control antibody (lane 3), then immunoblotted with anti-BRCA1 (upper panel) or anti-CtIP (middle panel) monoclonal antibody. The immunoprecipitate was divided between two SDS-polyacrylamide gels, one of which underwent extended electrophoresis for detection of BRCA1 (220 kD) while the other was immunoblotted with anti-CtIP antibody. As a control, immunoprecipitate was also blotted with anti-LMO4 monoclonal antibody (lower panel). Lysate from HBL100 cells was loaded in an adjacent lane to provide a size control for the respective proteins (lane 1), indicated by arrows. C, Interaction between LMO4, CtIP, BRCA1 and Ldb1 in mammalian cells. […] Western blot analysis confirmed high level expression of individual proteins in these transfectants (lane 1).\nFor detection of endogenous proteins, nuclear extracts from human HBL100 cells were prepared (Watters, D., Khanna, K. K., Beamish, H., Birrell, G., Spring, K., Kedar, P., Gatei, M., Stenzel, D., Hobson, K., Kozlov, S., Zhang, N., Farrell, A., Ramsay, J., Gatti, R., and Lavin, M. (1997) Oncogene 14(16), 1911-21). Proteins were immunoprecipitated with either anti-LMO4 rabbit antisera or a rat anti-LMO4 monoclonal antibody and protein G sepharose, and fractionated by SDS-PAGE. […]"}, "[3]": {"target": "T3, endogenous CtIP of human HBL100 breast epithelial cells (human, UniProt Q99708 1-897)", "T3 construct": "mature; also called native CtIP", "T3 sequence (Q99708 whole entry)": "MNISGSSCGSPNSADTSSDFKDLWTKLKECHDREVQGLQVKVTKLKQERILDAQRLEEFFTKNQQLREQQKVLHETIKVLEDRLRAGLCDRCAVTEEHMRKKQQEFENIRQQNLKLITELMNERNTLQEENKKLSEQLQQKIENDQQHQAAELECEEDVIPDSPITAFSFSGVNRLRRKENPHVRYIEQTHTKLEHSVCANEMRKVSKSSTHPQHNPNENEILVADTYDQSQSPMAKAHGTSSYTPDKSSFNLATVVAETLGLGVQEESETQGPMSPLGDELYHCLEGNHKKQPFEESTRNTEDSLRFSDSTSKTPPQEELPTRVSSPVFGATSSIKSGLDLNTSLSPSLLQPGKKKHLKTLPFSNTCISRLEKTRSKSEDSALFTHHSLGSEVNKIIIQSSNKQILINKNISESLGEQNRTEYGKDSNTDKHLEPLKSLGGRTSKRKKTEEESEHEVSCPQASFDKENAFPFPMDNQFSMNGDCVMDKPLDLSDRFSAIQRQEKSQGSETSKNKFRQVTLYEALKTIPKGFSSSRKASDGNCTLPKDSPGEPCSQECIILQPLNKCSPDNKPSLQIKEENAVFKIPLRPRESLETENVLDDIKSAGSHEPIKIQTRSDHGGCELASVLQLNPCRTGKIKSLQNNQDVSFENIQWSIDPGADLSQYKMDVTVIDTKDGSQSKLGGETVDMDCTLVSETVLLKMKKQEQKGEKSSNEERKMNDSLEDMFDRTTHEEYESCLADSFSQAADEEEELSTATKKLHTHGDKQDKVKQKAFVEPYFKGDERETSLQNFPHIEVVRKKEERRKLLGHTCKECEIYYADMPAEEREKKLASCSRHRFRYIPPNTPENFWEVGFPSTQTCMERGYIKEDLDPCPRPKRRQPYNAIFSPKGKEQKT", "assay": "immunoprecipitation of HBL100 nuclear extracts with anti-LMO4 antisera / anti-CtIP western blot (FIG. 6D)", "experimental": "(§3) A, CtIP associates with LMO4 and LMO2. […] Lysates were prepared and proteins immunoprecipitated with the indicated specific antisera. F, Flag; C, control isotype-matched monoclonal antibody. Immunoblotting was performed with the antibodies indicated under each panel. Lane 4 depicts the reciprocal immunoprecipitation experiment performed using an anti-CtIP antibody. The 25 kD bands in lane 4 represent light chain. Western blot analysis of lysates confirmed expression of CtIP and LMO proteins. Note the different size markers indicated for LMO proteins detected by western analysis using anti-Flag antibody (lane 4). B, The first LIM domain but not the second LIM domain of LMO4 interacts with CtIP. […] Cell extracts were immunoprecipitated with anti-Flag (F) antibody, then immunoblotted with anti-CtIP antisera. Western blot analysis of lysates confirmed expression of CtIP and LIM polypeptides (lower panels). […] Cell extracts were immunoprecipitated with anti-Flag (F) antibody, then immunoblotted with anti-CtIP antibody. Western blot analysis of lysates confirmed expression of CtIP and LIM proteins (lower panels). D, Interaction between endogenous LMO4 and CtIP proteins in HBL100 epithelial cells. Nuclear extracts were immunoprecipitated with pre-immune serum (lane 1) or anti-LMO4 antisera (lane 2), then blotted using anti-CtIP monoclonal antibody. […]"}, "[4]": {"target": "T4, HA-tagged BRCA1 SZ fragment (residues 1528-1863) (human, UniProt P38398 1528-1863, 35S-methionine-labeled in the in vitro binding assay)", "T4 construct": "also called BRCT (SZ) region", "T4 sequence (P38398 1528-1863)": "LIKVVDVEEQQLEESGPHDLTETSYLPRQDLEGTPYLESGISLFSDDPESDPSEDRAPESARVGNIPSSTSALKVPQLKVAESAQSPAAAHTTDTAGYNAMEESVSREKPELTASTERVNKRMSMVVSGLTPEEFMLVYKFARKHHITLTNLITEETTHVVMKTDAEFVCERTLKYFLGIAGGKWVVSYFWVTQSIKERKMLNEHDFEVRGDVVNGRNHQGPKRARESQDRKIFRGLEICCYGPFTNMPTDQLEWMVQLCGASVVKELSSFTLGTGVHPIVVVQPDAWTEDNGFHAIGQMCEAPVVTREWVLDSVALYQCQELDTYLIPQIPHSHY", "assay": "in vitro binding of 35S-labeled BRCA1-SZ to GST-LMO4 on glutathione sepharose, SDS-PAGE", "experimental": "FIG. 10: The C-terminal BRCT domains of BRCA1 mediate interaction with LMO4. […] Lysates were immunoprecipitated with anti-Flag (F) or control (C) antibody, then western blotted with anti-HA antibody. B, LMO4 and the BRCT domain interact in vitro. […] Bound proteins were analysed by SDS-PAGE. Arrow depicts the BRCA1-SZ protein. C, LMO4 and the BRCT (SZ) region of BRCA1 interact in yeast Hf7c cells. Yeast cells were cotransformed with the indicated expression vectors and plated on media deficient in his, leu and trp. Staining for β-galactosidase activity verified that the His⁺ colonies obtained for LMO4+CtIP and LMO4+BRCA1 (SZ) transformants were also β-Gal⁺. No colonies were obtained for Hf7c cells transformed with BRCA1 (SZ)+lamin, BRCA1 (SZ) alone or LMO4 alone.\nBinding assays were carried out with a 10 μl aliquot of […] BRCA1-SZ primed lysate and 100 μl (50% slurry of GST-sepharose beads; Amersham Pharmacia) of GST-LMO4 or GST-only protein in GST interaction buffer (150 mM NaCl, 10 mM Tris pH 8, 0.3% NP-40, 1 mM DTT, 0.25% BSA and 0.5 mM phenylmethylsulfonyl fluoride) for 2 hours at 4° C. The beads were subsequently washed twice in GST interaction buffer containing BSA, followed by two more washes in GST interaction buffer without BSA. Finally, the bound BRCA1 C-terminal polypeptide was eluted by boiling the beads for 5 min in 30 μl loading buffer and analysed by SDS-PAGE."}, "[5]": {"target": "CtIP (residues 45-897), human, from pCMV-HA-ns311 (human, UniProt Q99708 45-897)", "sequence (Q99708 45-897 limits assumed)": "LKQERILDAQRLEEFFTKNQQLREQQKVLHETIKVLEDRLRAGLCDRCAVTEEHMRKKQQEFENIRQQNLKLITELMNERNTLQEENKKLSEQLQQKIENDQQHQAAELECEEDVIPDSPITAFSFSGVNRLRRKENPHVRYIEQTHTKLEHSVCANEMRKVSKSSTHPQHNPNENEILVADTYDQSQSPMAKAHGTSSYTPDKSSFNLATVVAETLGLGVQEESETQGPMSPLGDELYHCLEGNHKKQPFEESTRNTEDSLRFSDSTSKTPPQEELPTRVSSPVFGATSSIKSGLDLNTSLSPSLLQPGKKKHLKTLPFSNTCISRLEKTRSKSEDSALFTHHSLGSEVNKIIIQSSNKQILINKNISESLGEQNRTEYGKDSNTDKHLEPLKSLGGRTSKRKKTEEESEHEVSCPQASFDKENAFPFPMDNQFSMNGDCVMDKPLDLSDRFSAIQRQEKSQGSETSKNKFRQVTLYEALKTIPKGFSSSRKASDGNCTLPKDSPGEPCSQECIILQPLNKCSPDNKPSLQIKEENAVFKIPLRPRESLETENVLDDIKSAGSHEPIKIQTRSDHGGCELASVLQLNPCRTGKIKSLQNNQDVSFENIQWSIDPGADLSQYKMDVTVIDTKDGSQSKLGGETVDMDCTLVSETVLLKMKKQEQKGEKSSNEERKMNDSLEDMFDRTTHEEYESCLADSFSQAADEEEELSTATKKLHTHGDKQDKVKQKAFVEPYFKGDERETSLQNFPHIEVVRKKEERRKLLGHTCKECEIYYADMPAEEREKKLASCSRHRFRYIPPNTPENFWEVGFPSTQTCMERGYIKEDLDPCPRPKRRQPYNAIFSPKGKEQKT", "assay": "co-immunoprecipitation (anti-Flag) / anti-CtIP western blot, transfected 293T cells", "experimental": "as §3, with “FIG. 6: Interaction between LM04 and CtIP requires a single LIM domain and appears to be specific for the LMO subclass. A,” for “A,”, “cells.” for “cells. Nuclear extracts were immunoprecipitated with pre-immune serum (lane 1) or anti-LMO4 antisera (lane 2), then blotted using anti-CtIP monoclonal antibody.”"}}}
{"binder": "B1", "values": [{"measurement": "transcription of the Gal4-CAT reporter gene in 293T cells (CAT ELISA)", "setting": "[1]", "result": "~3", "unit": "fold"}, {"measurement": "binding result", "setting": "HA-CtIP (281-620)", "result": "no binding"}, {"measurement": "binding result", "setting": "HA-CtIP (59-320)", "result": "no binding"}]}
{"binder": "B2", "values": [{"measurement": "binding result", "setting": "[2]", "result": "binds"}, {"measurement": "binding result", "setting": "[3]", "result": "binds"}]}
{"binder": "B3", "values": [{"measurement": "binding result", "setting": "[4]", "result": "binds"}]}
{"binder": "B4", "values": [{"measurement": "binding result", "setting": "[5]", "result": "no binding"}]}
